US20240309360A1, “TRANS-ACTIVATORS AND METHODS AND USE THEREOF” (THE GOVERNING COUNCIL OF THE UNIVERSITY OF TORONTO, priority 2021, published 2024)

What was measured:
Format in all cases: cell-based, human
[1] = system: promoter of CD133 gene in HEK293T cells; test: CD133 induction experiment; conditions: PYL1 fusion, 1 μM abscisic acid, pool of 5 gRNAs
Experimental: Up to 2 additional TADs selected from p65 and HSF1 were combined with SPDYE4-CITED1 TADs in different orders and tested for the ability to activate transcription of the PYL1-ABI EGFP reporter system (FIG. 17, left panel) or the endogenous CD133 gene (FIG. 17, right panel).
(§1) Methods: Cells were seeded on 48-well plates. Next day, after cells were between 70-90% confluent, 250 ng of each construct was transfected in each well using (Thermo Fisher Scientific, 11668019) reagent. Each construct was either directly fused TagRFP either directly fused to each component or being co-expressed from the same plasmid was used as a measure of transfection. In each experiment, the same gate for RFP+ cells were used to control for the effect of each construct's expression levels on activity. EGFP reporter cells were expanded from a clonal line to control for level of ABI-dCas9 and gRNA targeting the TetO7 sites upstream of the promoter. For the CD133 induction experiment, a 293T cell line stably expressing ABI-dCas9 and a pool of 5 gRNAs targeting the promoter were used for all activators. CD133 antibody conjugated to APC (Miltenyi Biotec, 130-113-668) was used. All activator constructs were fused to PYL1 at their C-terminus and were recruited to their targets by treating the cells with 1 μM abscisic acid for either 24 or 48 hours.

[2] = system: 7×TetO-EGFP reporter in HEK293T cells; test: 117 effector domains with rTetR or dCas9 based recruitment systems; conditions: rTetR fusion (1 μg/ml doxycycline 48 hours) or PYL1 with dCas9-ABI1
Experimental: A further 117 different combinations of activation domains or fragments of individual activation domains were assayed by fusing them either to PYL1 (to test with the dCas9-ABI1 system) or to rTetR, a transcription factor that binds DNA in the presence of doxycycline. All constructs were tested with the same TetO reporter construct.
Methods: 200 ng of plasmid expressing super activators fused to rTetR in their C terminus and 50 ng DsRed was transfected into HEK293T cells stably expressing 7×TetO-EGFP reporter. One day after transfection, cells were treated with 1 μg/ml doxycycline for 48 hours. After the treatment, cells were analyzed by flow cytometry for EGFP expression

[3] = system: EGFP reporter (TetO7) in HEK293T cells; test: Multi-TAD effectors fused to PYL1 recruited to EGFP reporter; conditions: PYL1 fusion, 1 μM abscisic acid, 24 or 48 hours
Experimental: Multiple TADs were fused together with PYL1 and tested for transcriptional activity using the PYL1-ABI EGFP reporter system described above. The following TAD fragments were used: CITED1-8 (SEQ ID NO: 47), CITED2-12 (SEQ ID NO: 49), C3orf62-12 (SEQ ID NO: 45), BRD8-25 (SEQ ID NO: 40), ZXDC-12 (SEQ ID NO: 97), KLF7-1 (SEQ ID NO: 72), ATXN7L3-1 (SEQ ID NO: 35), FAM90A1-20 (SEQ ID NO: 60), SPDYE4-3 (SEQ ID NO: 90), YAF2-7 (SEQ ID NO: 96).
as §1, with “All activator constructs were fused to PYL1 at their C-terminus and were recruited to their targets by treating the cells with 1 μM abscisic acid for either 24 or 48 hours.” left out

B1: SPDYE4-CITED1-P65-HSF1: multi-component effector of SPDYE4, CITED1, p65 and HSF1 activation domains (protein)
chain: MDPSPQPQSLGLKRKSEWSDESEEELEEELELERAPEPEDTWVVETLCGLKMKLKRKRASSGGSGGSESLSPSAGAQSPAIIDSDPVDEEVLMSLVVELGLDRANELPELWLGQNEFDFTADFPSSCGGSINSRSSGSPKKKRKVGSQYLPDTDDRHRIEEKRKRTYETFKSIMKKSPFSGPTDPRPPPRRIAVPSRSSASVPKPAPQPYPFTSSLSTINYDEFPTMVFPSGQISQASALAPAPPQVLPQAPAPAPAPAMVSALAQAPAPVPVLAPGPPQAVAPPAPKPTQAGEGTLSEALLQLQFDDEDLGALLGNSTDPAVFTDLASVDNSEFQQLLNQGIPVAPHTTEPMLMEYPEAITRLVTGAQRPPDPAPAPLGAPGLPNGLLSGDEDFSSIADMDFSALLGSGSGSGFSVDTSALLDLFSPSVTVPDMSLPDLDSSLASIQELLSPQEPPRPPEAENSSPDSGKQLVHYTAQPLFLLDPGSVDTGSNDLPVLFELGEGSYFSEGDGFAEDPTISLLTGSEPPKAKDPTVS
[1]
  activation of endogenous CD133 gene: most robust activation
[2]
  activity of effector constructs on TetO reporter: the most active constructs in the system
[3]
  transcriptional activation of EGFP reporter by TAD fusions: most robust activation
